T1: MdMYB90-like (Malus domestica (Fuji apple / M_Fuji …, UniProt A0A498J9W0 1-206))
T1 sequence: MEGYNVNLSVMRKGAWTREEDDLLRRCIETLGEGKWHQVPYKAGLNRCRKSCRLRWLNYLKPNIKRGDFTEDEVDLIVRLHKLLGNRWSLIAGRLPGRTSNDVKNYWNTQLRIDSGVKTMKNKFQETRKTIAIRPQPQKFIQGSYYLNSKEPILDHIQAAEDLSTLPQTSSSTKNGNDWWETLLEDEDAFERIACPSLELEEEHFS

B1: CHS probe (dsDNA)
DNA 1: GACTAATTTCAACTGCTCCCAAAGT
DNA 2: ACTTTGGGAGCAGTTGAAATTAGTC
B2: CHSm probe (dsDNA)
DNA 1: GACTAATTTTGGTAACTCCCAAAGT
DNA 2: ACTTTGGGAGTTACCAAAATTAGTC
B3: UFGT probe (dsDNA)
DNA 1: TGGTACAAACAACTGCAATAAAATA
DNA 2: TATTTTATTGCAGTTGTTTGTACCA
B4: UFGTm probe (dsDNA)
DNA 1: TGGTACAAATGGTAACAATAAAATA
DNA 2: TATTTTATTGTTACCATTTGTACCA
B5: BHLH3 probe (dsDNA)
DNA 1: CCTGCTCACTAACCAATCAAACCCA
DNA 2: TGGGTTTGATTGGTTAGTGAGCAGG
B6: BHLH3m probe (dsDNA)
DNA 1: CCTGCTCACTGGTAAATCAAACCCA
DNA 2: TGGGTTTGATTTACCAGTGAGCAGG
B7: MYB1 probe (dsDNA)
DNA 1: CGGACCACTCAACGGAACAAATAAG
DNA 2: CTTATTTGTTCCGTTGAGTGGTCCG
B8: MYB1m probe (dsDNA)
DNA 1: CGGACCACTTGGTAAAACAAATAAG
DNA 2: CTTATTTGTTTTACCAAGTGGTCCG

Tests used:
[1] = target: T1, MdMYB90-like; assay: EMSA; EMSA, Beyotime Chemiluminescent EMSA Kit, 1x kit binding buffer, 10 uL total; salt, pH and temperature not stated; conditions: protein: recombinant; tags: MBP (pMAL-c5X fusion); label: biotin; blunt
[2] = target: T1, MdMYB90-like; assay: competition; unlabeled mutant did not reduce binding to N1; EMSA, Beyotime Chemiluminescent EMSA Kit, 1x kit binding buffer, 10 uL total; salt, pH and temperature not stated; conditions: protein: recombinant; tags: MBP (pMAL-c5X fusion); blunt
[3] = target: T1, MdMYB90-like; assay: competition; unlabeled mutant did not reduce binding to N3; EMSA, Beyotime Chemiluminescent EMSA Kit, 1x kit binding buffer, 10 uL total; salt, pH and temperature not stated; conditions: protein: recombinant; tags: MBP (pMAL-c5X fusion); blunt
[4] = target: T1, MdMYB90-like; assay: competition; unlabeled mutant did not reduce binding to N5; EMSA, Beyotime Chemiluminescent EMSA Kit, 1x kit binding buffer, 10 uL total; salt, pH and temperature not stated; conditions: protein: recombinant; tags: MBP (pMAL-c5X fusion); blunt
[5] = target: T1, MdMYB90-like; assay: competition; unlabeled mutant did not reduce binding to N7; EMSA, Beyotime Chemiluminescent EMSA Kit, 1x kit binding buffer, 10 uL total; salt, pH and temperature not stated; conditions: protein: recombinant; tags: MBP (pMAL-c5X fusion); blunt

Binder	binding result [1]	other results
B1	binds	
B2		binding result [2]: no binding
B3	binds	
B4		binding result [3]: no binding
B5	binds	
B6		binding result [4]: no binding
B7	binds	
B8		binding result [5]: no binding

— PMC8245648, “The R2R3-type MYB transcription factor MdMYB90-like is responsible for the enhanced skin color of an apple bud sport mutant”
